Laboratory results reported in the supplement of paper PMC5998384.

Assays:
HeLa Kyoto [1] = test: melting temperature (median over replicates), in situ; higher = more thermally stable
HeLa Kyoto [2] = test: thermal stability score vs G1/S (z-score of summed log2 fold changes over temperatures); higher = more thermally stable than in G1/S
HeLa Kyoto [3] = test: solubility in G1/S (NP-40 vs SDS abundance) (log2 ratio); higher = more soluble; conditions: cell cycle stage: G1/S
HeLa Kyoto [4] = test: solubility change mitosis vs G1/S (difference of NP-40 vs SDS log2 ratios) (log2 ratio difference); higher = more soluble in mitosis
[5] = cell cycle stage: early G1 (4.5 h after nocodazole release)
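For melting temperature (median over replicates), in situ in this document: HeLa Kyoto cells synchronized by double thymidine or nocodazole block, proteins quantified by TMT10plex mass spectrometry, three independent biological replicates.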
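For solubility change mitosis vs G1/S (difference of NP-40 vs SDS log2 ratios) in this document: synchronized HeLa Kyoto cells (double thymidine block for G1/S, nocodazole release for mitosis), protein amounts in NP-40 versus SDS lysates quantified by mass spectrometry, three biological replicates.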
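For solubility in G1/S (NP-40 vs SDS abundance) in this document: HeLa Kyoto cells arrested at G1/S by double thymidine block, proteins quantified by TMT10plex mass spectrometry in mild NP-40 versus SDS extracts, three biological replicates.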
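For thermal stability score vs G1/S (z-score of summed log2 fold changes over temperatures) in this document: synchronized HeLa Kyoto cells, proteins quantified by TMT10plex mass spectrometry, three biological replicates, mitosis taken 0.5 h after nocodazole release, G1/S directly after double thymidine block.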

Row | Sequence | melting temperature (HeLa Kyoto [1]; cell cycle stage: G1/S) [°C] | melting temperature (HeLa Kyoto [1]; cell cycle stage: mitosis) [°C] | thermal stability score (HeLa Kyoto [2]; [5]) | thermal stability score (HeLa Kyoto [2]; cell cycle stage: mitosis) | solubility in G1/S (log2) (HeLa Kyoto [3]) | solubility change mitosis (log2) (HeLa Kyoto [4])
1 | MSSVSPIQIPSRLPLLLTHEGVLLPGSTMRTSVDSARNLQLVRSRLLKGTSLQSTILGVIPNTPDPASDAQDLPPLHRIGTAALAVQVVGSNWPKPHYTLLITGLCRFQIVQVLKEKPYPIAEVEQLDRLEEFPNTCKMREELGELSEQFYKYAVQLVEMLDMSVPAVAKLRRLLDSLPREALPDILTSIIRTSNKEKLQILDAVSLEERFKMTIPLLVRQIEGLKLLQKTRKPKQDDDKRVIAIRPIRRITHISGTLEDEDEDEDNDDIVMLEKKIRTSSMPEQAHKVCVKEIKRLKKMPQSMPEYALTRNYLELMVELPWNKSTTDRLDIRAARILLDNDHYAMEKLKKRVLEYLAVRQLKNNLKGPILCFVGPPGVGKTSVGRSVAKTLGREFHRIALGGVCDQSDIRGHRRTYVGSMPGRIINGLKTVGVNNPVFLLDEVDKLGKSLQGDPAAALLEVLDPEQNHNFTDHYLNVAFDLSQVLFIATANTTATIPAALLDRMEIIQVPGYTQEEKIEIAHRHLIPKQLEQHGLTPQQIQIPQVTTLDIITRYTREAGVRSLDRKLGAICRAVAVKVAEGQHKEAKLDRSDVTEREGCREHILEDEKPESISDTTDLALPPEMPILIDFHALKDILGPPMYEMEVSQRLSQPGVAIGLAWTPLGGEIMFVEASRMDGEGQLTLTGQLGDVMKESAHLAISWLRSNAKKYQLTNAFGSFDLLDNTDIHLHFPAGAVTKDGPSAGVTIVTCLASLFSGRLVRSDVAMTGEITLRGLVLPVGGIKDKVLAAHRAGLKQVIIPRRNEKDLEGIPGNVRQDLSFVTASCLDEVLNAAFDGGFTVKTRPGLLNSKL [LONP2] | 52.3 | 52.1 | 0.257 | 0.49 | 0.0116 | -0.132
2 | MSTGDSFETRFEKMDNLLRDPKSEVNSDCLLDGLDALVYDLDFPALRKNKNIDNFLSRYKDTINKIRDLRMKAEDYEVVKVIGRGAFGEVQLVRHKSTRKVYAMKLLSKFEMIKRSDSAFFWEERDIMAFANSPWVVQLFYAFQDDRYLYMVMEYMPGGDLVNLMSNYDVPEKWARFYTAEVVLALDAIHSMGFIHRDVKPDNMLLDKSGHLKLADFGTCMKMNKEGMVRCDTAVGTPDYISPEVLKSQGGDGYYGRECDWWSVGVFLYEMLVGDTPFYADSLVGTYSKIMNHKNSLTFPDDNDISKEAKNLICAFLTDREVRLGRNGVEEIKRHLFFKNDQWAWETLRDTVAPVVPDLSSDIDTSNFDDLEEDKGEEETFPIPKAFVGNQLPFVGFTYYSNRRYLSSANPNDNRTSSNADKSLQESLQKTIYKLEEQLHNEMQLKDEMEQKCRTSNIKLDKIMKELDEEGNQRRNLESTVSQIEKEKMLLQHRINEYQRKAEQENEKRRNVENEVSTLKDQLEDLKKVSQNSQLANEKLSQLQKQLEEANDLLRTESDTAVRLRKSHTEMSKSISQLESLNRELQERNRILENSKSQTDKDYYQLQAILEAERRDRGHDSEMIGDLQARITSLQEEVKHLKHNLEKVEGERKEAQDMLNHSEKEKNNLEIDLNYKLKSLQQRLEQEVNEHKVTKARLTDKHQSIEEAKSVAMCEMEKKLKEEREAREKAENRVVQIEKQCSMLDVDLKQSQQKLEHLTGNKERMEDEVKNLTLQLEQESNKRLLLQNELKTQAFEADNLKGLEKQMKQEINTLLEAKRLLEFELAQLTKQYRGNEGQMRELQDQLEAEQYFSTLYKTQVKELKEEIEEKNRENLKKIQELQNEKETLATQLDLAETKAESEQLARGLLEEQYFELTQESKKAASRNRQEITDKDHTVSRLEEANSMLTKDIEILRRENEELTEKMKKAEEEYKLEKEEEISNLKAAFEKNINTERTLKTQAVNKLAEIMNRKDFKIDRKKANTQDLRKKEKENRKLQLELNQEREKFNQMVVKHQKELNDMQAQLVEECAHRNELQMQLASKESDIEQLRAKLLDLSDSTSVASFPSADETDGNLPESRIEGWLSVPNRGNIKRYGWKKQYVVVSSKKILFYNDEQDKEQSNPSMVLDIDKLFHVRPVTQGDVYRAETEEIPKIFQILYANEGECRKDVEMEPVQQAEKTNFQNHKGHEFIPTLYHFPANCDACAKPLWHVFKPPPALECRRCHVKCHRDHLDKKEDLICPCKVSYDVTSARDMLLLACSQDEQKKWVTHLVKKIPKNPPSGFVRASPRTLSTRSTANQSFRKVVKNTSGKTS [ROCK1] | 50.4 | 50.2 | -0.147 | -0.118 | -0.0278 | -0.138
3 | MSTKNFRVSDGDWICPDKKCGNVNFARRTSCNRCGREKTTEAKMMKAGGTEIGKTLAEKSRGLFSANDWQCKTCSNVNWARRSECNMCNTPKYAKLEERTGYGGGFNERENVEYIEREESDGEYDEFGRKKKKYRGKAVGPASILKEVEDKESEGEEEDEDEDLSKYKLDEDEDEDDADLSKYNLDASEEEDSNKKKSNRRSRSKSRSSHSRSSSRSSSPSSSRSRSRSRSRSSSSSQSRSRSSSRERSRSRGSKSRSSSRSHRGSSSPRKRSYSSSSSSPERNRKRSRSRSSSSGDRKKRRTRSRSPERRHRSSSGSSHSGSRSSSKKK [ZRANB2] | 58 |  | 0.299 | 0.397 | -0.0186 | -0.011
4 | MSTPAVPQDLQLPPSQRAQSAFKEQRRQKLKEHLLRRKTLFAYKQENEMLSSSRDQRVVTSEDQVQEGTKVLKLKTKMADKENMKRPAESKNNTVVGKHCIPLKPSNELTNSTVVIDTHKPKDSNQTPHLLLTEDDPQSQHMTLSQAFHLKNNSKKKQMTTEKQKQDANMPKKPVLGSYRGQIVQSKINSFRKPLQVKDESSAATKKLSATIPKATKPQPVNTSSVTVKSNRSSNMTATTKFVSTTSQNTQLVRPPIRSHHSNTRDTVKQGISRTSANVTIRKGPHEKELLQSKTALSSVKTSSSQGIIRNKTLSRSIASEVIARPASLSNDKLMEKSEPVDQRRHTAGKAIVDSRSAQPKETSEERKARLSEWKAGKGRVLKRPPNSVVTQHEPAGQNEKPVGSFWTTMAEEDEQRLFTEKVNNTFSECLNLINEGCPKEDILVTLNDLIKNIPDAKKLVKYWICLALIEPITSPIENIIAIYEKAILAGAQPIEEMRHTIVDILTMKSQEKANLGENMEKSCASKEEVKEVSIEDTGVDVDPEKLEMESKLHRNLLFQDCEKEQDNKTKDPTHDVKTPNTETRTSCLIKYNVSTTPYLQSVKKKVQFDGTNSAFKELKFLTPVRRSRRLQEKTSKLPDMLKDHYPCVSSLEQLTELGRETDAFVCRPNAALCRVYYEADTT [CKAP2] | 51 | 49.3 | -1.31 | -0.259 | -0.733 | 0.657
5 | MSVACVLKRKAVLWQDSFSPHLKHHPQEPANPNMPVVLTSGTGSQAQPQPAANQALAAGTHSSPVPGSIGVAGRSQDDAMVDYFFQRQHGEQLGGGGSGGGGYNNSKHRWPTGDNIHAEHQVRSMDELNHDFQALALEGRAMGEQLLPGKKFWETDESSKDGPKGIFLGDQWRDSAWGTSDHSVSQPIMVQRRPGQSFHVNSEVNSVLSPRSESGGLGVSMVEYVLSSSPGDSCLRKGGFGPRDADSDENDKGEKKNKGTFDGDKLGDLKEEGDVMDKTNGLPVQNGIDADVKDFSRTPGNCQNSANEVDLLGPNQNGSEGLAQLTSTNGAKPVEDFSNMESQSVPLDPMEHVGMEPLQFDYSGTQVPVDSAAATVGLFDYNSQQQLFQRPNALAVQQLTAAQQQQYALAAAHQPHIGLAPAAFVPNPYIISAAPPGTDPYTAGLAAAATLGPAVVPHQYYGVTPWGVYPASLFQQQAAAAAAATNSANQQTTPQAQQGQQQVLRGGASQRPLTPNQNQQGQQTDPLVAAAAVNSALAFGQGLAAGMPGYPVLAPAAYYDQTGALVVNAGARNGLGAPVRLVAPAPVIISSSAAQAAVAAAAASANGAAGGLAGTTNGPFRPLGTQQPQPQPQQQPNNNLASSSFYGNNSLNSNSQSSSLFSQGSAQPANTSLGFGSSSSLGATLGSALGGFGTAVANSNTGSGSRRDSLTGSSDLYKRTSSSLTPIGHSFYNGLSFSSSPGPVGMPLPSQGPGHSQTPPPSLSSHGSSSSLNLGGLTNGSGRYISAAPGAEAKYRSASSASSLFSPSSTLFSSSRLRYGMSDVMPSGRSRLLEDFRNNRYPNLQLREIAGHIMEFSQDQHGSRFIQLKLERATPAERQLVFNEILQAAYQLMVDVFGNYVIQKFFEFGSLEQKLALAERIRGHVLSLALQMYGCRVIQKALEFIPSDQQNEMVRELDGHVLKCVKDQNGNHVVQKCIECVQPQSLQFIIDAFKGQVFALSTHPYGCRVIQRILEHCLPDQTLPILEELHQHTEQLVQDQYGNYVIQHVLEHGRPEDKSKIVAEIRGNVLVLSQHKFASNVVEKCVTHASRTERAVLIDEVCTMNDGPHSALYTMMKDQYANYVVQKMIDVAEPGQRKIVMHKIRPHIATLRKYTYGKHILAKLEKYYMKNGVDLGPICGPPNGII [PUM1] | 51.5 | 51 | -1.3 | -1.48 | 0.186 | -0.102
6 | MSVEAYGPSSQTLTFLDTEEAELLGADTQGSEFEFTDFTLPSQTQTPPGGPGGPGGGGAGGPGGAGAGAAAGQLDAQVGPEGILQNGAVDDSVAKTSQLLAELNFEEDEEDTYYTKDLPIHACSYCGIHDPACVVYCNTSKKWFCNGRGNTSGSHIVNHLVRAKCKEVTLHKDGPLGETVLECYNCGCRNVFLLGFIPAKADSVVVLLCRQPCASQSSLKDINWDSSQWQPLIQDRCFLSWLVKIPSEQEQLRARQITAQQINKLEELWKENPSATLEDLEKPGVDEEPQHVLLRYEDAYQYQNIFGPLVKLEADYDKKLKESQTQDNITVRWDLGLNKKRIAYFTLPKTDSGNEDLVIIWLRDMRLMQGDEICLRYKGDLAPLWKGIGHVIKVPDNYGDEIAIELRSSVGAPVEVTHNFQVDFVWKSTSFDRMQSALKTFAVDETSVSGYIYHKLLGHEVEDVIIKCQLPKRFTAQGLPDLNHSQVYAVKTVLQRPLSLIQGPPGTGKTVTSATIVYHLARQGNGPVLVCAPSNIAVDQLTEKIHQTGLKVVRLCAKSREAIDSPVSFLALHNQIRNMDSMPELQKLQQLKDETGELSSADEKRYRALKRTAERELLMNADVICCTCVGAGDPRLAKMQFRSILIDESTQATEPECMVPVVLGAKQLILVGDHCQLGPVVMCKKAAKAGLSQSLFERLVVLGIRPIRLQVQYRMHPALSAFPSNIFYEGSLQNGVTAADRVKKGFDFQWPQPDKPMFFYVTQGQEEIASSGTSYLNRTEAANVEKITTKLLKAGAKPDQIGIITPYEGQRSYLVQYMQFSGSLHTKLYQEVEIASVDAFQGREKDFIILSCVRANEHQGIGFLNDPRRLNVALTRARYGVIIVGNPKALSKQPLWNHLLNYYKEQKVLVEGPLNNLRESLMQFSKPRKLVNTINPGARFMTTAMYDAREAIIPGSVYDRSSQGRPSSMYFQTHDQIGMISAGPSHVAAMNIPIPFNLVMPPMPPPGYFGQANGPAAGRGTPKGKTGRGGRQKNRFGLPGPSQTNLPNSQASQDVASQPFSQGALTQGYISMSQPSQMSQPGLSQPELSQDSYLGDEFKSQIDVALSQDSTYQGERAYQHGGVTGLSQY [UPF1] | 54.3 | 52.3 | -3.14 | -8.04 | 0.0497 | -0.0177
7 | MSVRVARVAWVRGLGASYRRGASSFPVPPPGAQGVAELLRDATGAEEEAPWAATERRMPGQCSVLLFPGQGSQVVGMGRGLLNYPRVRELYAAARRVLGYDLLELSLHGPQETLDRTVHCQPAIFVASLAAVEKLHHLQPSVIENCVAAAGFSVGEFAALVFAGAMEFAEGLYAVKIRAEAMQEASEAVPSGMLSVLGQPQSKFNFACLEAREHCKSLGIENPVCEVSNYLFPDCRVISGHQEALRFLQKNSSKFHFRRTRMLPVSGAFHTRLMEPAVEPLTQALKAVDIKKPLVSVYSNVHAHRYRHPGHIHKLLAQQLVSPVKWEQTMHAIYERKKGRGFPQTFEVGPGRQLGAILKSCNMQAWKSYSAVDVLQTLEHVDLDPQEPPR [MCAT] | 53.7 | 54.9 | -1.29 | -2.74 | 0.3 | -0.00154
